# From the RNAGym collection of RNA variant scans (doi:10.1073/pnas.2313332121)
# Fewer inactive variants are shown than the library holds.
# B1: TPR 5TU (parent)
# chain: GGAUCUUCUCGAUCUAACAAAAAAGACAAAUCUGCCACAAAGCUUGAGAGCAUCUUCGGAUGCAGAGGCGGCAGCCUUCGGUGGCGCGAUAGCGCCAACGUUCUCAACUAUGACACGCAAAACGCGUGCUCCGUUGAAUGGAGUUUAUCAUG
# Variants of: B1
# Test: polymerase ribozyme fitness, log enrichment relative to wild type (log ratio); higher = more active; in vitro selection for triplet polymerase activity
# How it was run: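 For each subunit of a heterodimeric triplet polymerase ribozyme, a mutant library was built by PCR and transcribed, then taken through a single in vitro selection round in triplicate. Selection involved annealing to a biotinylated primer, the partner subunit and triplets, incubation frozen at −7 °C, gel excision of extended constructs, capture on streptavidin beads and RT-PCR. Genotypes were retained after Illumina sequencing of inputs and outputs only with ≥10 input reads and ≥1 read in each output. Fitness is defined as the logarithm of a genotype's enrichment relative to wild-type enrichment, using inverse-variance-weighted averages across replicates, with the logarithm taken to base 2.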
row,Variant,polymerase ribozyme fitness (log ratio)
1,GGAUCUUCUCGAUCUAACAAACAAGACAAAUCUGCCACAAAGCUUGAGAGCAUCUUCGGAUGCAGAGGCGGCAGCAUUCGGUGGCGCGGUAGCGGCAACGUUCUCAACUAUGACACGCAAAACGCGUGCUCCGUUGAAUGGAGUUUAUCAUG [A22C C76A A89G C95G],-4.19
2,GGAUCUUCUCGAUCUAACAAACAAGACAAAUCUGCCACAAAGCUUGUGAGCAUUUUCGGAUGCAGAGGCGGCAGCCUUCGGUGGCUCGAUAGCGCCAACGUUAUCAACUAUGACACGCAAAACGCGUGCUCCGUUGAAUGGAGUUUAUCAUG [A22C A47U C54U G86U C103A],≤ -4.2
3,GGAUCUUCUCGAUCUAACAAACAAGAUAAAUCUGCCACAAAGCUUGAGACCAUCUUCGGAUGCAGAGGCGGCAGCCUUCUGUGGCGCGAUAGCGCCAACGUUCUCAACUAUGACACGCAAAACGCGUGCUCCGUUGAAUGGAGGUUAUCAUG [A22C C27U G50C G80U U144G],≤ -4.2
4,GGAUCUUCUCGAUCUAACAAACAAGACAAAUCUGCCAUAAAGCUUGAGAGCAUCUUCGGAUGCAGAGGUGGCAGCCUUCGGUGGUGCGAUAGCGCCAACGUUCUCAACUAUGACACGCAAAACGCGUGCUCCGUUGAAUGGAGUUUAUCAUG [A22C C38U C69U C85U],-1.31
5,GGAUCUUCUCGAUCUAACAAACAAGACAAAUCUGCCACAAAGCUUGAGAGCAUCUUCGGAUGUAGACGCGGCAGCCUUCGGUGUCGCGAUAGCGCCACCGUUCUCAACUAUGACACGCAAAACGCGUCCUCCGUUGAAUGGAGAUUAUCAAG [A22C C63U G67C G84U A98C G128C U144A U151A],≤ -4.2
6,GGAUCUUCUCGAUCUAACAAACAAGACAAAUCUGCCACAAAGCUUGAGAGUAUCUUCGGAUGCAGAGGCGGCAGCCUUCGGUGUCGCGAUAGCGCCAACGUUCUCAACUAUGACACGCAAAACGCGUGCUCCGUUGAAUGGAGUUUAUCAUG [A22C C51U G84U],-2.78
7,GGAUCUUCUCGAUCUAACAAACAAGACAAAUCUGCCAUAAAGCUUGAGAGCAUCUUCUGCUGCAGAGGCGGCAGCCUUCGGUGGAGUGAUAGCGCCAACGUUCUCAACUAUGACACGCAAAACGCGUGCUCCAUUGAAUUGAGUUUAUCAUG [A22C C38U G58U A60C C85A C87U G133A G140U],≤ -4.2
8,GGAUCUUCUCGAUCUAACAAACAAGACAAAUCUGCCACAAAGCUUGAGAGCAUUUUCGGAUGCAGAGGCGGCAGCCUUCGGUGUCGCGAUAGCGCCAACGUUCGCAACUAUGAGACGCAAAACGCGUGCUCCUUUGAAUGGAGUUUAUCAUG [A22C C54U G84U U104G C114G G133U],≤ -4.2
9,GGAUCUUCUCGAUCUAACAAACAAGACAAAUCUGCCCCAAAGCUUGAGAGCAUCUUCGGAUGCAGAGGCGGCAGCCUUCGGUGGCGCGAUAGCGCCAACGUUCUCAACUAUGACACGCAAAACGCGUGCUCCGUUGAAUGGAGUUUAUCAUG [A22C A37C],-0.165
10,GGAUCUUCUCGAUCUAACAAACAAGACAAAUCUGCCACAAAGCUUGAGAGCAUCUUCGGAUGCAGAGGGGGCAGCCUUCGCUGGCGCGAUAGCGCCAACGUUCUCAACUAUGACACGCAAAACGCGUGCUCCGUUGAAUGGAGUUUAUCAUG [A22C C69G G81C],-1.85
11,GGAUCUUCUCGAUCUAACAAACAAGACAAAUCUGCCACAUAGCUUGAGAGCAUCUUUAGAUGCAAAGGCGGCAGACUUCGGUGGCGCGAUAGCGCCAACGUUCUCAACUAUGACACGCAAAACGCGUGCUCCAUUGAUUGGCGUUUAUCAUG [A22C A40U C57U G58A G65A C75A G133A A138U A142C],≤ -4.2
12,GGAUCUUCUCGAUCUAACAAACAAGACAAAUCUGCCACAAAGCUUGAGAGCCUCUUCGGAUGCAGAGGCGGCAGCCUUCGUUGGCGCGAUAGCGCCAACGUUCUCAACUAUGACACGCAAAACGCGUGCUCCGUUGAAUGGAGUUUAUCAUG [A22C A52C G81U],-1.38
13,GGAUCUUCUCGAUCUAACAAACAAGAUAAAUCUGCCACAAAGCAUGCGAGCAUCUUCGGAUGCAGAGGCGGCAGCCUUCGGCGGCGCGAUAGCGUCAACGUUCUCAACUAUGACACGCAAAACGCGUGCUCCGUUGAAUGGCGUUUAUCAUG [A22C C27U U44A A47C U82C C95U A142C],≤ -4.2
14,GGAUCUUCUCGAUCUAACAAACAAGACAAAUCUGCCACCAAGCUUGAGAGCAUCUUCGGAUGCAGAGGCGGCAGCCUUCGGUGGCGCGAUAGCGCCAACGUUCUCAACUAUGACACGCAAAACGCGUGCUCCGUUGAAUGGAGUUUAUCAUG [A22C A39C],-2.49
15,GGAUCUUCUCGAUCUAACAAACAAGACAAAUCUGCCACAAAGCUUGAGAGCAUCUUCGGAUGCAGAGGCGGCAGGCUUCGGUGGCGCUAUGGCGCCAACGUUCUCAACUGUGACAAGCAAAACGCGUGCUCCGUUAAAUGGAGUUUAUCAUG [A22C C75G G88U A91G A110G C116A G136A],≤ -4.2
16,GGAUCUUCUCGAUCUAACAAACAAGACAAAUCUGCCACAAAGCUUGAGAGCAUCUUCGGAUGCAGAGGAGGCAGCCUUCCGUGGUGCGUUAGCGCCAACGUUCUCAACUAUGACACGCAAAACGCGUGCUCCGUUGAAUGGGGUUUAUCAUG [A22C C69A G80C C85U A89U A142G],≤ -4.2
17,GGAUCUUCUCGAUCUAACAAACAAGACAAAUCUGCCACAAAGCUUGAGAGCAUCUUCGGAUGCAGAGGUGGCAGCCUUCGGUGGCGCGAUAGAGCCAACGUUCUCAACUAUGACACGCAAAACGCGUGCUCCGUUGAAUGGAGAUUAUCAUG [A22C C69U C93A U144A],-3.99
18,GGAUCUUCUCGAUCUAACAAACAAGACAAAUCUGCCUCAAAGCUUGAGAGCAUCUUCGGAGGCAGAGGCGGCAGCCUUCGGUGGGGCGAUUGCGCCAACGUUCUCAACUAUGACACGCAAAACGCGUGCUCCGUUGAAUGGAGUUAAUCAUG [A22C A37U U61G C85G A91U U146A],≤ -4.2
19,GGAUCUUCUCGAUCUAACAAACAAGACAAAUCUGCCACAAAGCUUGAGAGCAUCUUCGGAUGCAGAGGCGGCAGCCUUCGGUGGCGCGAUAGCGCCAACGUUCUCAACUAUGACCCGCAAAACGCGUGGUCCGUUGAAUGGAGUUUAUCAUG [A22C A115C C129G],≤ -4.2
